# According to patent US20220064329A1 (Novo Nordisk, published 2022):
# T1: recombinant human activated Factor VII (FVIIa) (human, UniProt P08709 61-212; P08709 213-466, ten glutamate residues of the Gla domain may be gamma-carboxylated)
# T1 construct: chains tethered by a disulfide bond; also called Factor VIIa; rFVIIa
# T1 sequence 1: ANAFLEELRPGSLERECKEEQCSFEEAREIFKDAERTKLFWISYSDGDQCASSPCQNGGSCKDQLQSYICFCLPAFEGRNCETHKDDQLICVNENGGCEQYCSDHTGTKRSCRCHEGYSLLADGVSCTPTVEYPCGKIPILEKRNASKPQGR
# T1 sequence 2: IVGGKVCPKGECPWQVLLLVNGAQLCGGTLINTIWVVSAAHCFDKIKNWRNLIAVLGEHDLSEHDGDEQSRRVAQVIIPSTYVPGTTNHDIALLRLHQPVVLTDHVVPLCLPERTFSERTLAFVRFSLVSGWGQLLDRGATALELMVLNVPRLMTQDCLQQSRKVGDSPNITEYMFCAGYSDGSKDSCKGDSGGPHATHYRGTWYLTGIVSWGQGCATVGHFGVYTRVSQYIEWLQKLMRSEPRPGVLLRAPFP
# Molecular target: T1, recombinant human activated Factor VII …
# Test: BLI (Fortebio)
row,Binder,Kd
1,"VH SEQ ID NO 562 / VL SEQ ID NO 438 (antibody, IgG4, V domains shown, humanized 11F2; IgG4 S228P/kappa) VH: QVQLQESGPGLVKPSDTLSLTCAVSGYSISSDSAWSWIRQPPGKGLEWIGYIQYSGSTNYNPSLKSRVTMSRDTSKNQFSLKLSSVTALDTAVYYCARSVNYYGNSFAVGPWGQGTLVTVSS VL: EIVLTQSPATLSLSPGERATLSCRASQGVSDYLAWYQQKPGQAPRLLIKYASQPATGIPARFSGSGSGTDFTLTISSLEPEDVAVYYCQNGHSFPLTFGQGTKLEIK",11 nM
2,"VH SEQ ID NO 570 / VL SEQ ID NO 366 (antibody, IgG4, V domains shown, humanized 11F2; IgG4 S228P/kappa) VH: QVQLQESGPGLVKPSDTLSLTCAVSGYSISSDSAWSWIRQPPGKGLEWIGYIQYSGSTNYNPSLKSRVTMSRDTSKNQFSLKLSSVTAADTAVYYCARSVNYYGNSFAVGPWGQGTLVTVSS VL: EIVLTQSPATLSLSPGERATLSCRASQGLSDYLAWYQQKPGEAPRLLIKYASQPATGIPARFSGSGSGTDFTLTISSLEPEDFAVYYCQNGHSFPLTFGQGTKLEIK",14 nM
3,"VH SEQ ID NO 562 / VL SEQ ID NO 494 (antibody, IgG4, V domains shown, humanized 11F2; IgG4 S228P/kappa) VH: QVQLQESGPGLVKPSDTLSLTCAVSGYSISSDSAWSWIRQPPGKGLEWIGYIQYSGSTNYNPSLKSRVTMSRDTSKNQFSLKLSSVTALDTAVYYCARSVNYYGNSFAVGPWGQGTLVTVSS VL: EIVLTQSPATLSLSPGERATLSCRASQGVSDYLHWYQQKPGQAPRLLIKYASQPATGIPARFSGSGSGTDFTLTISSLEPEDVAVYYCQNGHSFPLTFGQGTKLEIK",1.6 nM
4,"VH SEQ ID NO 562 / VL SEQ ID NO 478 (antibody, IgG4, V domains shown, humanized 11F2; IgG4 S228P/kappa) VH: QVQLQESGPGLVKPSDTLSLTCAVSGYSISSDSAWSWIRQPPGKGLEWIGYIQYSGSTNYNPSLKSRVTMSRDTSKNQFSLKLSSVTALDTAVYYCARSVNYYGNSFAVGPWGQGTLVTVSS VL: EIVLTQSPATLSLSPGERATLSCRASQGVSDYLHWYQQKPGQAPRLLIKYASQPATGIPARFSGSGSGTDFTLTISSLEPEDFAVYYCQQGHSFPLTFGQGTKLEIK",2.6 nM
5,"VH SEQ ID NO 570 / VL SEQ ID NO 310 (antibody, IgG4, V domains shown, humanized 11F2; IgG4 S228P/kappa) VH: QVQLQESGPGLVKPSDTLSLTCAVSGYSISSDSAWSWIRQPPGKGLEWIGYIQYSGSTNYNPSLKSRVTMSRDTSKNQFSLKLSSVTAADTAVYYCARSVNYYGNSFAVGPWGQGTLVTVSS VL: EIVLTQSPATLSLSPGERATLSCRASQGISDYLAWYQQKPGQAPRLLIKYASQPATGIPARFSGSGSGTDFTLTISSLEPEDFAVYYCQNGHSFPLTFGQGTKLEIK",13 nM
6,"VH SEQ ID NO 570 / VL SEQ ID NO 406 (antibody, IgG4, V domains shown, humanized 11F2; IgG4 S228P/kappa) VH: QVQLQESGPGLVKPSDTLSLTCAVSGYSISSDSAWSWIRQPPGKGLEWIGYIQYSGSTNYNPSLKSRVTMSRDTSKNQFSLKLSSVTAADTAVYYCARSVNYYGNSFAVGPWGQGTLVTVSS VL: EIVLTQSPATLSLSPGERATLSCRASQGVSDYLAWYQQKPGQAPRLLIKYASQPATGIPARFSGSGSGTDFTLTISSLEPEDFAVYYCQNGHSFPLTFGAGTKLEIK",20 nM
7,"VH SEQ ID NO 570 / VL SEQ ID NO 398 (antibody, IgG4, V domains shown, humanized 11F2; IgG4 S228P/kappa) VH: QVQLQESGPGLVKPSDTLSLTCAVSGYSISSDSAWSWIRQPPGKGLEWIGYIQYSGSTNYNPSLKSRVTMSRDTSKNQFSLKLSSVTAADTAVYYCARSVNYYGNSFAVGPWGQGTLVTVSS VL: EIVLTQSPATLSLSPGERATLSCRASQGVSDYLAWYQQKPGEAPRLLIKYTSQPATGIPARFSGSGSGTDFTLTISSLEPEDFAVYYCQNGHSFPLTFGQGTKLEIK",29 nM
8,"VH SEQ ID NO 570 / VL SEQ ID NO 390 (antibody, IgG4, V domains shown, humanized 11F2; IgG4 S228P/kappa) VH: QVQLQESGPGLVKPSDTLSLTCAVSGYSISSDSAWSWIRQPPGKGLEWIGYIQYSGSTNYNPSLKSRVTMSRDTSKNQFSLKLSSVTAADTAVYYCARSVNYYGNSFAVGPWGQGTLVTVSS VL: EIVLTQSPATLSLSPGERATLSCRASQGVSDYLAWYQQKPGEAPRLLIKYASQPATGIPARFSGSGSGTDFTLTISSLEPEDFAVYYCQNGHSFPLTFGQGTKLEIK",48 nM

# Stronger by Kd, values ahead:
row,Kd,Binder
1,1.1 nM,"VH SEQ ID NO 562 / VL SEQ ID NO 502 (antibody, IgG4, V domains shown, humanized 11F2; IgG4 S228P/kappa) VH: QVQLQESGPGLVKPSDTLSLTCAVSGYSISSDSAWSWIRQPPGKGLEWIGYIQYSGSTNYNPSLKSRVTMSRDTSKNQFSLKLSSVTALDTAVYYCARSVNYYGNSFAVGPWGQGTLVTVSS VL: EIVLTQSPATLSLSPGERATLSCRASQGVSDYLHWYQQKPGQAPRLLIKYTSQPATGIPARFSGSGSGTDFTLTISSLEPEDFAVYYCQNGHSFPLTFGQGTKLEIK"
2,1.3 nM,"VH SEQ ID NO 570 / VL SEQ ID NO 382 (antibody, IgG4, V domains shown, humanized 11F2; IgG4 S228P/kappa) VH: QVQLQESGPGLVKPSDTLSLTCAVSGYSISSDSAWSWIRQPPGKGLEWIGYIQYSGSTNYNPSLKSRVTMSRDTSKNQFSLKLSSVTAADTAVYYCARSVNYYGNSFAVGPWGQGTLVTVSS VL: EIVLTQSPATLSLSPGERATLSCRASQGLSDYLHWYQQKPGEAPRLLIKYASQPATGIPARFSGSGSGTDFTLTISSLEPEDFAVYYCQNGHSFPLTFGQGTKLEIK"
3,1.4 nM,"VH SEQ ID NO 562 / VL SEQ ID NO 470 (antibody, IgG4, V domains shown, humanized 11F2; IgG4 S228P/kappa) VH: QVQLQESGPGLVKPSDTLSLTCAVSGYSISSDSAWSWIRQPPGKGLEWIGYIQYSGSTNYNPSLKSRVTMSRDTSKNQFSLKLSSVTALDTAVYYCARSVNYYGNSFAVGPWGQGTLVTVSS VL: EIVLTQSPATLSLSPGERATLSCRASQGVSDYLHWYQQKPGQAPRLLIKYASQPATGIPARFSGSGSGTDFTLTISSLEPEDFAVYYCQNGHSFPLTFGQGTKLEIK"
4,1.4 nM,"VH SEQ ID NO 562 / VL SEQ ID NO 454 (antibody, IgG4, V domains shown, humanized 11F2; IgG4 S228P/kappa) VH: QVQLQESGPGLVKPSDTLSLTCAVSGYSISSDSAWSWIRQPPGKGLEWIGYIQYSGSTNYNPSLKSRVTMSRDTSKNQFSLKLSSVTALDTAVYYCARSVNYYGNSFAVGPWGQGTLVTVSS VL: EIVLTQSPATLSLSPGERATLSCRASQGVSDYLHWYQQKPGEAPRLLIKYASQPATGIPARFSGSGSGTDFTLTISSLEPEDFAVYYCQNGHSFPLTFGQGTKLEIK"
5,0.92 nM,"VH SEQ ID NO 570 / VL SEQ ID NO 334 (antibody, IgG4, V domains shown, humanized 11F2; IgG4 S228P/kappa) VH: QVQLQESGPGLVKPSDTLSLTCAVSGYSISSDSAWSWIRQPPGKGLEWIGYIQYSGSTNYNPSLKSRVTMSRDTSKNQFSLKLSSVTAADTAVYYCARSVNYYGNSFAVGPWGQGTLVTVSS VL: EIVLTQSPATLSLSPGERATLSCRASQGISDYLHWYQQKPGQAPRLLIKYASQPATGIPARFSGSGSGTDFTLTISSLEPEDFAVYYCQNGHSFPLTFGQGTKLEIK"
6,1.5 nM,"VH SEQ ID NO 570 / VL SEQ ID NO 342 (antibody, IgG4, V domains shown, humanized 11F2; IgG4 S228P/kappa) VH: QVQLQESGPGLVKPSDTLSLTCAVSGYSISSDSAWSWIRQPPGKGLEWIGYIQYSGSTNYNPSLKSRVTMSRDTSKNQFSLKLSSVTAADTAVYYCARSVNYYGNSFAVGPWGQGTLVTVSS VL: EIVLTQSPATLSLSPGERATLSCRASQGISDYLHWYQQKPGQAPRLLIKYTSQPATGIPARFSGSGSGRDFTLTISSLEPEDFAVYYCQNGHSFPLTFGAGTKLELK"
7,1 nM,"VH SEQ ID NO 570 / VL SEQ ID NO 350 (antibody, IgG4, V domains shown, humanized 11F2; IgG4 S228P/kappa) VH: QVQLQESGPGLVKPSDTLSLTCAVSGYSISSDSAWSWIRQPPGKGLEWIGYIQYSGSTNYNPSLKSRVTMSRDTSKNQFSLKLSSVTAADTAVYYCARSVNYYGNSFAVGPWGQGTLVTVSS VL: EIVLTQSPATLSLSPGERATLSCRASQGISDYLHWYQQKPGQAPRLLIKYTSQPATGIPARFSGSGSGTDFTLTISSLEPEDFAVYYCQNGHSFPLTFGAGTKLELK"
8,0.83 nM,"VH SEQ ID NO 570 / VL SEQ ID NO 318 (antibody, IgG4, V domains shown, humanized 11F2; IgG4 S228P/kappa) VH: QVQLQESGPGLVKPSDTLSLTCAVSGYSISSDSAWSWIRQPPGKGLEWIGYIQYSGSTNYNPSLKSRVTMSRDTSKNQFSLKLSSVTAADTAVYYCARSVNYYGNSFAVGPWGQGTLVTVSS VL: EIVLTQSPATLSLSPGERATLSCRASQGISDYLHWYQQKPGEAPRLLIKYTSQPATGIPARFSGSGSGTDFTLTISSLEPEDFAVYYCQNGHSFPLTFGQGTKLEIK"
9,1.3 nM,"VH SEQ ID NO 562 / VL SEQ ID NO 486 (antibody, IgG4, V domains shown, humanized 11F2; IgG4 S228P/kappa) VH: QVQLQESGPGLVKPSDTLSLTCAVSGYSISSDSAWSWIRQPPGKGLEWIGYIQYSGSTNYNPSLKSRVTMSRDTSKNQFSLKLSSVTALDTAVYYCARSVNYYGNSFAVGPWGQGTLVTVSS VL: EIVLTQSPATLSLSPGERATLSCRASQGVSDYLHWYQQKPGQAPRLLIKYASQPATGIPARFSGSGSGTDFTLTISSLEPEDFGVYYCQNGHSFPLTFGQGTKLEIK"
10,1.4 nM,"VH SEQ ID NO 562 / VL SEQ ID NO 462 (antibody, IgG4, V domains shown, humanized 11F2; IgG4 S228P/kappa) VH: QVQLQESGPGLVKPSDTLSLTCAVSGYSISSDSAWSWIRQPPGKGLEWIGYIQYSGSTNYNPSLKSRVTMSRDTSKNQFSLKLSSVTALDTAVYYCARSVNYYGNSFAVGPWGQGTLVTVSS VL: EIVLTQSPATLSLSPGERATLSCRASQGVSDYLHWYQQKPGQAPRLLIKYASQPATGIPARFSGSGSGTDFTLTISSLEPEDFAVYYCQNGHSFPLTFGAGTKLEIK"
11,0.55 nM,"VH SEQ ID NO 570 / VL SEQ ID NO 326 (antibody, IgG4, V domains shown, humanized 11F2; IgG4 S228P/kappa) VH: QVQLQESGPGLVKPSDTLSLTCAVSGYSISSDSAWSWIRQPPGKGLEWIGYIQYSGSTNYNPSLKSRVTMSRDTSKNQFSLKLSSVTAADTAVYYCARSVNYYGNSFAVGPWGQGTLVTVSS VL: EIVLTQSPATLSLSPGERATLSCRASQGISDYLHWYQQKPGEAPRLLIKYTSQPATGIPARFSGSGSGTDFTLTISSLEPEDFGVYYCQNGHSFPLTFGAGTKLELK"
12,0.85 nM,"VH SEQ ID NO 570 / VL SEQ ID NO 358 (antibody, IgG4, V domains shown, humanized 11F2; IgG4 S228P/kappa) VH: QVQLQESGPGLVKPSDTLSLTCAVSGYSISSDSAWSWIRQPPGKGLEWIGYIQYSGSTNYNPSLKSRVTMSRDTSKNQFSLKLSSVTAADTAVYYCARSVNYYGNSFAVGPWGQGTLVTVSS VL: EIVLTQSPATLSLSPGERATLSCRASQGISDYLHWYQQKPGQAPRLLIKYTSQPATGIPARFSGSGSGTDFTLTISSLEPEDFAVYYCQNGHSFPLTFGQGTKLEIK"
